Measured values reported in patent publication US20110262366A1.
No end group written: not given here.

Tests used:
[1] = target: endothelial cell receptor on HAEC (human aortic endothelial cells); experiment: competition, 50 µM free TKPPR against 10% BRU-114 microbubbles (competitor) on HAEC, static
[2] = target: endothelial cell receptor on HAEC (human aortic endothelial cells); experiment: competition, 50 µM free TKPPR against 1% BRU-114 microbubbles (competitor) on HAEC, static
[3] = target: endothelial cell receptor on HAEC (human aortic endothelial cells); experiment: competition, 100 µM free TKPPR against 1% BRU-114 microbubbles (competitor) on HAEC, static
[4] = target: endothelial cell receptor on HAEC (human aortic endothelial cells); experiment: competition, 25 µM free TKPPR against 1% BRU-114 microbubbles (competitor) on HAEC, static
[5] = target: endothelial cell receptor on HAEC (human aortic endothelial cells); experiment: competition, 50 µM free TKPPR against 1% BRU-114 microbubbles (competitor) on HAEC, static; remark: listed apart in the source
[6] = target: endothelial cell receptor on HAEC (human aortic endothelial cells); experiment: competition, 500 µM free TKPPR against TKPPR-beads (competitor) on HAEC, static, n = 11
[7] = target: endothelial cell receptor on HAEC (human aortic endothelial cells); experiment: competition, 10 µM free TKPPR against 5% BRU-114 microbubbles (competitor) on HAEC, static
[8] = target: endothelial cell receptor on HAEC (human aortic endothelial cells); experiment: competition, 100 µM free TKPPR against 1% BRU-114 microbubbles (competitor) on HAEC, static; remark: listed apart in the source
[9] = target: endothelial cell receptor on HAEC (human aortic endothelial cells); experiment: competition, 25 µM free TKPPR against 1% BRU-292 microbubbles (competitor) on HAEC, static
[10] = target: endothelial cell receptor on HAEC (human aortic endothelial cells); experiment: competition, 10 µM free TKPPR against 1% BRU-292 microbubbles (competitor) on HAEC, static
[11] = target: endothelial cell receptor on HAEC (human aortic endothelial cells); experiment: competition, 200 µM free TKPPR against 5% BRU-114 microbubbles (competitor) on HAEC, static
[12] = target: endothelial cell receptor on HAEC (human aortic endothelial cells); experiment: competition, 5 µM free TKPPR against 1% BRU-114 microbubbles (competitor) on HAEC, static
[13] = target: endothelial cell receptor on HAEC (human aortic endothelial cells); experiment: competition, 25 µM free TKPPR against 1% DPPE-GTKPPR microbubbles (competitor) on HAEC, static
[14] = target: endothelial cell receptor on HAEC (human aortic endothelial cells); experiment: competition, 10 µM free TKPPR against TKPPR-beads (competitor) on HAEC, static, n = 11
[15] = target: endothelial cell receptor on HAEC (human aortic endothelial cells); experiment: competition, 50 µM free TKPPR against 1% BRU-292 microbubbles (competitor) on HAEC, static
[16] = target: endothelial cell receptor on HAEC (human aortic endothelial cells); experiment: competition, 50 µM free TKPPR against 5% BRU-114 microbubbles (competitor) on HAEC, static
[17] = target: endothelial cell receptor on HAEC (human aortic endothelial cells); experiment: competition, 100 µM free TKPPR against 10% BRU-114 microbubbles (competitor) on HAEC, static
[18] = target: endothelial cell receptor on HAEC (human aortic endothelial cells); experiment: competition, 200 µM free TKPPR against 1% BRU-114 microbubbles (competitor) on HAEC, static
[19] = target: endothelial cell receptor on HAEC (human aortic endothelial cells); experiment: competition, 25 µM free TKPPR against 2% BRU-114 microbubbles (competitor) on HAEC, static
[20] = target: endothelial cell receptor on HAEC (human aortic endothelial cells); experiment: competition, 10 µM free TKPPR against 1% DPPE-GTKPPR microbubbles (competitor) on HAEC, static
[21] = target: endothelial cell receptor on HAEC (human aortic endothelial cells); experiment: competition, 10 µM free TKPPR against 1% BRU-114 microbubbles (competitor) on HAEC, static
[22] = target: endothelial cell receptor on HAEC (human aortic endothelial cells); experiment: competition, free TKPPR 100 µM (head prints 100 µmol) against 1% DPPE-GTKPPR microbubbles (competitor) on HAEC, static
[23] = target: endothelial cell receptor on HAEC (human aortic endothelial cells); experiment: competition, 100 µM free TKPPR against 1% DPPE-GTKPPR microbubbles (competitor) on HAEC, static
[24] = target: endothelial cell receptor on HAEC (human aortic endothelial cells); experiment: competition, 100 µM free TKPPR against 5% DPPE-GTKPPR microbubbles (competitor) on HAEC, static
[25] = target: endothelial cell receptor on HAEC (human aortic endothelial cells); experiment: competition, 2.5 µM free TKPPR against 1% BRU-292 microbubbles (competitor) on HAEC, static
[26] = target: endothelial cell receptor on HAEC (human aortic endothelial cells); experiment: competition, 25 µM free TKPPR against TKPPR-beads (competitor) on HAEC, static, n = 11
[27] = target: endothelial cell receptor on HAEC (human aortic endothelial cells); experiment: competition, 50 µM free TKPPR against 1% BRU-114 microbubbles (competitor) on HAEC, static; remark: listed apart in the source
[28] = target: endothelial cell receptor on HAEC (human aortic endothelial cells); experiment: competition, 100 µM free TKPPR against 5% BRU-114 microbubbles (competitor) on HAEC, static
[29] = target: endothelial cell receptor on HAEC (human aortic endothelial cells); experiment: competition against 5% DPPE-GTKPPR microbubbles (competitor) on HAEC, static
[30] = target: endothelial cell receptor on HAEC (human aortic endothelial cells); experiment: competition, free TKPPR 10 µM (head prints 10 µmol) against 1% DPPE-GTKPPR microbubbles (competitor) on HAEC, static
[31] = target: endothelial cell receptor on HAEC (human aortic endothelial cells); experiment: competition, 10 µM free TKPPR against 1% BRU-114 microbubbles (competitor) on HAEC, static; remark: listed apart in the source
[32] = target: endothelial cell receptor on HAEC (human aortic endothelial cells); experiment: competition, 200 µM free TKPPR against 10% BRU-114 microbubbles (competitor) on HAEC, static
[33] = target: endothelial cell receptor on RAEC (rabbit aortic endothelial cells); experiment: competition, 100 µM free TKPPR against 5% DPPE-GTKPPR microbubbles (competitor) on RAEC, static

TKPPR-OH [TKPPR-OH (L-threonyl-L-lysyl-L-prolyl-L-prolyl-L-arginine)]
Bubbles Bound in presence of competitor [1]: 857 bubbles | Bubbles Bound in presence of competitor [2]: 5 bubbles | Bubbles Bound in presence of competitor [3]: 17 bubbles | Bubbles Bound in presence of competitor [4]: 75 bubbles | Bubbles Bound in presence of competitor [5]: 56 bubbles | % Inhibition [6]: 70.6% | Bubbles Bound in presence of competitor [7]: 1340 bubbles | Bubbles Bound in presence of competitor [8]: 4 bubbles | Bubbles Bound in presence of competitor [9]: 718 bubbles | Bubbles Bound in presence of competitor [10]: 833 bubbles | Bubbles Bound in presence of competitor [11]: 13 bubbles | Bubbles Bound in presence of competitor [12]: 790 bubbles | Average % Inhibition [13]: 82% | % Inhibition [14]: 30.8% | Bubbles Bound in presence of competitor [15]: 462 bubbles | Bubbles Bound in presence of competitor [16]: 440 bubbles | Bubbles Bound in presence of competitor [17]: 399 bubbles | Bubbles Bound in presence of competitor [18]: 4 bubbles | Bubbles Bound % (of control binding) [19]: 16 % of control | Average % Inhibition [20]: 79.6% | Bubbles Bound in presence of competitor [21]: 535 bubbles | Bubbles Bound in presence of competitor [22]: 5 bubbles | Average % Inhibition [23]: 93.7% | HAEC bubbles bound in presence of competitor [24]: 58 bubbles | Bubbles Bound in presence of competitor [25]: 888 bubbles | % Inhibition [26]: 50.7% | Bubbles Bound in presence of competitor [27]: 9 bubbles | Bubbles Bound in presence of competitor [28]: 12 bubbles | % more bubbles bound [29]: 19% | Bubbles Bound in presence of competitor [30]: 96 bubbles | Bubbles Bound in presence of competitor [31]: 528 bubbles | Bubbles Bound in presence of competitor [32]: 66 bubbles | RAEC bubbles bound in presence of competitor [33]: 21 bubbles
